Laboratory results: patent US20040166530A1 (BAYLOR COLLEGE OF MEDICINE, published 2004)

What was measured:
[1] = target: phosphorylated IκB peptide (residues 21-41, phosphorylated on Ser-32 and Ser-36); test: HeLa lysate on IκB peptide beads, anti-Skp1 immunoblot (FIG. 8)
[2] = target: T1, Myc-tagged Cdc53 (Cdc53^M) (S. cerevisiae, UniProt Q12018 1-815); test: anti-Cdc53^M immune complexes from insect cells, immunoblot (FIG. 2C)
T1 construct: Expressed from baculovirus in insect cells; not shown: N-terminal Myc tag
T1 sequence (looked up): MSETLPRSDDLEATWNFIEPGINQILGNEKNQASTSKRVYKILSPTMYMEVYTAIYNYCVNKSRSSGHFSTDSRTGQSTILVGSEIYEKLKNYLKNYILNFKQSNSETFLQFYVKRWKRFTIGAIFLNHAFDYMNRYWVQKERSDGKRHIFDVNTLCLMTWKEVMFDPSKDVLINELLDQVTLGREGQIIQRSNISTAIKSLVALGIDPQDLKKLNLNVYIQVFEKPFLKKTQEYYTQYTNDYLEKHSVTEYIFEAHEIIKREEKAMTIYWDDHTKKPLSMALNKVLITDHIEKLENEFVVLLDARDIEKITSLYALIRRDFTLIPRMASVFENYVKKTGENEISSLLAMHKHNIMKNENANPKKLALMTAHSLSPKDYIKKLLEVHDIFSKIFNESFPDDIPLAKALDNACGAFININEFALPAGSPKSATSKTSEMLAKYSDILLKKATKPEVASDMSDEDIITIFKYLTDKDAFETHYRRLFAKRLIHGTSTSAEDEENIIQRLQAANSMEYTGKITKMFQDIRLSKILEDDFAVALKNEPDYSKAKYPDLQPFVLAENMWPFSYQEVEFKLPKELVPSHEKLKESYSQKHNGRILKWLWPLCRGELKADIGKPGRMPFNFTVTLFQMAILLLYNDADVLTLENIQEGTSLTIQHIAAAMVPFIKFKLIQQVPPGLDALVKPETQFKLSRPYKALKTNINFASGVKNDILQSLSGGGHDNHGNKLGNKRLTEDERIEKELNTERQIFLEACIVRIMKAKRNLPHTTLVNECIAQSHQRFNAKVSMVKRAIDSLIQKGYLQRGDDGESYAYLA
Protocol: To examine the assembly of recombinant yeast proteins, 0.4 ml lysate were typically derived from 2×10⁶ cells. […] Immunopurification was performed by incubating the lysates at 4° C. for 2 hours with 4 μg of the anti-Myc or anti-G10 antibody and 8 μl of Protein A-Sepharose, or with 8 μl of immobilized anti-Flag antibodies (Kodak; See, Example 1). Immune complexes were washed three times with 1 ml of lysis butter prior to SDS-PAGE.
Associated proteins were then washed three times with 1 ml of lysis buffer prior to SDS-PAGE and immunoblotting, were performed as described above.
As shown in this Figure, phosphorylated Sic1 efficiently associates with Cdc53/Skp1/Cdc4 complexes, and this association is dependent upon the presence of Skp1 (See, FIG. 2C, lanes 6 and 8). Typically, 10-20% of the input phosphorylated Sic1 was bound at about 20 nM Sic1. […] Consistent with the results in FIG. 1, the level of Cdc4 found in immune complexes lacking Skp1 were >10-fold lower than that found in the presence of Skp1.

[3] = target: Cdc4/Skp1^F complex (S. cerevisiae) (UniProt P52286); test: binding of 32P-labeled Cln kinase complexes to anti-Skp1^F immune complexes, autoradiography (FIG. 5A)
[4] = target: T2, Grr1/Skp1^F/Cdc53 complex (S. cerevisiae, UniProt P24814 1-1151; P52286 1-194; Q12018 1-815); test: as above
T2 construct: also called Cdc53/Skp1/Grr1 complex; Grr1/Skp1/Cdc53 complex; not shown: N-terminal His6-G10 (T7 gene 10) tag; N-terminal Flag tag; N-terminal Myc tag

[5] = target: Flag-Cdc4 (Cdc4^F) (S. cerevisiae) (UniProt P07834); test: binding reaction with anti-Flag (Cdc4^F) immune complexes with increasing Skp1, immunoblot (FIG. 2D)
[6] = target: T2, Grr1/Skp1^F/Cdc53 complex; test: binding of 32P-labeled Sic1 complexes to anti-Skp1^F immune complexes, autoradiography (FIG. 4B)
Protocol: These experiments were conducted as described above, with the exception being that Grr1 was substituted for Cdc4 (approximately 100 ng). Proteins were separated by SDS-PAGE, and blotted with anti-Skp1 anti-Myc to detect Grr1G10 and Cdc53^M, with anti-Skp1 antibodies.
In this Figure, lanes 2-5 contain anti-Skp1^F immune complexes derived from insect cells infected with the indicated baculovirus combinations were used for binding reactions with ³²P-labeled Sic1 complexes. Ten percent of the input Sic1 complex (lane 1) was included as a control. The presence of Cdc4, Skp1, Cdc53, and Grr1 was verified by immunoblotting.

[7] = target: T1, Myc-tagged Cdc53 (Cdc53^M); test: anti-Myc immunoprecipitation from co-infected insect cells, immunoblot (FIG. 1A)
Excerpt: Insect cells were co-infected with various combinations of baculoviruses expressing Myc-tagged Cdc53 (Cdc53^M), Cdc34, Cdc4, and Skp1. Anti-Myc immune complexes from lysates of these infected cells were immunoblotted to identify associated proteins (See, FIG. 1A). […] Thus, one function of Skp1 is to facilitate association of Cdc53 with Cdc4. […] Furthermore, it appeared that Cdc53 can simultaneously associate with both Cdc34 and Skp1, as the association of Gst-Skp1 with Cdc34 is enhanced in the presence of Cdc53^M (See, FIG. 1C).
For recombinant protein expression and assembly of complexes, 4×10⁵ insect cells (Hi5, Invitrogen) were infected with the indicated virus combinations for 40 hours. These combinations included baculoviruses expressing Myc-tagged Cdc53 (Cdc53^M), Cdc34, Cdc4, and Skp1. Cells were then harvested and disrupted in lysis buffer (50 mM Tris-HCl (pH 7.5), 150 mM NaCl, 0.5% Nonidet P40, 10 mM NaF, 10 mM β-glycerol phosphate, 1 mM PMSF, and 5 μg/ml each leupeptin, antipain, and aprotinin). For isolation of protein complexes, typically about 3 ml of lysis buffer was used per 0.5×10⁸ cells.
To examine the assembly of recombinant yeast proteins, 0.4 ml lysate were typically derived from 2×10⁶ cells. […]

T2 sequence (P24814 whole entry, chain 1 of 2): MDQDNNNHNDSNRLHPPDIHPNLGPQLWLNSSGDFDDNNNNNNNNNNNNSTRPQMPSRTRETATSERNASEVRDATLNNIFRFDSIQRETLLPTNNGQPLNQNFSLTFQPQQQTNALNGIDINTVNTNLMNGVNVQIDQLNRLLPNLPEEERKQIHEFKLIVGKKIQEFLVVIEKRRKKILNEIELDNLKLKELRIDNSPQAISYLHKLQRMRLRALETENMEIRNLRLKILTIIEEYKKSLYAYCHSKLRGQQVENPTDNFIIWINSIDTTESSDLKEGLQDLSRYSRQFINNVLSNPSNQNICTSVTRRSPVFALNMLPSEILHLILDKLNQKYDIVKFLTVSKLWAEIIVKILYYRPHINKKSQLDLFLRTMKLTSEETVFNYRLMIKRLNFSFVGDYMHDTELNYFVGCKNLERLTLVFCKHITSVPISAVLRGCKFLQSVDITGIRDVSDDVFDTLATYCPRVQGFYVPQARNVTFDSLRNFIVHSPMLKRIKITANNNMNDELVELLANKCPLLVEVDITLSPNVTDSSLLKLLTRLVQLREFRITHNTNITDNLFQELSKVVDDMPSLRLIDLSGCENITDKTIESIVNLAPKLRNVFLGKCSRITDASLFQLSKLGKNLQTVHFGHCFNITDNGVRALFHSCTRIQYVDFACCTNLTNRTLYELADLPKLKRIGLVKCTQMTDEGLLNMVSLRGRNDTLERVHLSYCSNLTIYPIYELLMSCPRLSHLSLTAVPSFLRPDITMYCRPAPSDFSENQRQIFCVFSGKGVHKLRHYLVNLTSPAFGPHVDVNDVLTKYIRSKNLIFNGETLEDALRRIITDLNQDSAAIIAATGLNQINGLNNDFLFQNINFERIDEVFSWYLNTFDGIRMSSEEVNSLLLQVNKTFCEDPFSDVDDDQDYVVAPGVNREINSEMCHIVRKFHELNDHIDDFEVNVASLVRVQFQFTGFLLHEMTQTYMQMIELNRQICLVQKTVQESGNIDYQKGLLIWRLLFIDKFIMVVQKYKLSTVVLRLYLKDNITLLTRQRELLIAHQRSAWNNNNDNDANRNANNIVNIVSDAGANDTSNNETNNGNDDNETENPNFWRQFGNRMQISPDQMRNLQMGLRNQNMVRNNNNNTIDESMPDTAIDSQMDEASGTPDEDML
T2 sequence (P52286 whole entry, chain 2 of 2): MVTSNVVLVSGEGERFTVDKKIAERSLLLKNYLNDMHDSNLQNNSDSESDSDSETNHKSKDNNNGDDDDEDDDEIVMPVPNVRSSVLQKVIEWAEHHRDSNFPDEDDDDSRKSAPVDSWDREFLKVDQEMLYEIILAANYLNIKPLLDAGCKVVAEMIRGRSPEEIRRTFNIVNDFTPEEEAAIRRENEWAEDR
Chain of Cdc4/Skp1^F complex (S. cerevisiae) (P52286 whole entry, one chain of several): as the sequence (P52286 whole entry, chain 2 of 2) above
Chain of phosphorylated IκB peptide (residues 21-41, phosphorylated on Ser-32 and Ser-36) (peptide, as listed by the source): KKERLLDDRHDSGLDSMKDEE

“Skp1 (in HeLa cell lysates) (from UniProt P63208 2-163)” showed a percent of the Skp1 in the extracts that can associate with IκB [1] of 1%.

B1: Cdc4 (other, S. cerevisiae, UniProt P07834 1-779, looked up)
chain: MGSFPLAEFPLRDIPVPYSYRVSGGIASSGSVTALVTAAGTHRNSSTAKTVETEDGEEDIDEYQRKRAAGSGESTPERSDFKRVKHDNHKTLHPVNLQNTGAASVDNDGLHNLTDISNDAEKLLMSVDDGSAAPSTLSVNMGVASHNVAAPTTVNAATITGSDVSNNVNSATINNPMEEGALPLSPTASSPGTTTPLAKTTKTINNNNNIADLIESKDSIISPEYLSDEIFSAINNNLPHAYFKNLLFRLVANMDRSELSDLGTLIKDNLKRDLITSLPFEISLKIFNYLQFEDIINSLGVSQNWNKIIRKSTSLWKKLLISENFVSPKGFNSLNLKLSQKYPKLSQQDRLRLSFLENIFILKNWYNPKFVPQRTTLRGHMTSVITCLQFEDNYVITGADDKMIRVYDSINKKFLLQLSGHDGGVWALKYAHGGILVSGSTDRTVRVWDIKKGCCTHVFKGHNSTVRCLDIVEYKNIKYIVTGSRDNTLHVWKLPKESSVPDHGEEHDYPLVFHTPEENPYFVGVLRGHMASVRTVSGHGNIVVSGSYDNTLIVWDVAQMKCLYILSGHTDRIYSTIYDHERKRCISASMDTTIRIWDLENIWNNGECSYATNSASPCAKILGAMYTLQGHTALVGLLRLSDKFLVSAAADGSIRGWDANDYSRKFSYHHTNLSAITTFYVSDNILVSGSENQFNIYNLRSGKLVHANILKDADQIWSVNFKGKTLVAAVEKDGQSFLEILDFSKASKINYVSNPVNSSSSSLESISTSLGLTRTTIIP
notes: Untagged, expressed from baculovirus in insect cells
B1 was tested, and the “fold lower level of Cdc4 in immune complexes lacking Skp1 than in the presence of Skp1” value [2] was over 10 fold.

B2: phosphorylated Cln2HA (protein, S. cerevisiae, UniProt P20438 1-545, looked up, not shown: small tags and cut ends)
chain: MASAEPRPRMGLVINAKPDYYPIELSNAELLSHFEMLQEYHQEISTNVIAQSCKFKPNPKLIDQQPEMNPVETRSNIITFLFELSVVTRVTNGIFFHSVRLYDRYCSKRIVLRDQAKLVVATCLWLAAKTWGGCNHIINNVVIPTGGRFYGPNPRARIPRLSELVHYCGDGQVFDESMFLQMERHILDTLNWNIYEPMINDYVLNVDENCLMQYELYENQVTYDKQCSEKRQSQLSQDSDATVDERPYQNEEEEEEDLKLKIKLINLKKFLIDVSAWQYDLLRYELFEVSHGIFSIINQFTNQDHGPFLMTPMTSESKNGEILSTLMNGIVSIPNSLMEVYKTVNGVLPFINQVKEYHLDLQRKLQIASNLNISRKLTISTPSCSFENSNSTSIPSPASSSQSHTPMRNMSSLSDNSVFSRNMEQSSPITPSMYQFGQQQSNSICGSTVSVNSLVNTNNKQRIYEQITGPNSNNATNDYIDLLNLNESNKENQNPATAHYLNGGPPKTSFINHGMFPSPTGTINSGKSSSASSLISFGMGNTQVI
modifications: autophosphorylated in Cln2/Cdc28 complexes with ATP; sites not stated
B2 gave a percent of the input associated (% of the input) [3] of 6 and a percent of the input associated (% of the input) [4] of 40.

B3: phosphorylated Sic1 (other, S. cerevisiae, UniProt P38634 1-284, looked up)
chain: MTPSTPPRSRGTRYLAQPSGNTSSSALMQGQKTPQKPSQNLVPVTPSTTKSFKNAPLLAPPNSNMGMTSPFNGLTSPQRSPFPKSSVKRTLFQFESHDNGTVREEQEPLGRVNRILFPTQQNVDIDAAEEEEEGEVLLPPSRPTSARQLHLSLERDEFDQTHRKKIIKDVPGTPSDKVITFELAKNWNNNSPKNDARSQESEDEEDIIINPVRVGKNPFASDELVTQEIRNERKRAMLRENPDIEDVITYVNKKGEVVEKRRLTDEEKRRFKPKALFQSRDQEH
modifications: phosphorylated in vitro by Gst-Cdc28HA/Cln1HA/Cks1 with ATP; sites not stated
notes: also called Cln1/Cdc28-phosphorylated Sic1; phosphorylated Sic1 complexes
For B3, the fold stimulation by Skp1 of the association of Sic1 with Cdc4 [5] was 5 fold and the binding result [6] was “no binding”.

B4: Cdc34 (enzyme, S. cerevisiae, UniProt P14682 1-295, looked up)
chain: MSSRKSTASSLLLRQYRELTDPKKAIPSFHIELEDDSNIFTWNIGVMVLNEDSIYHGGFFKAQMRFPEDFPFSPPQFRFTPAIYHPNVYRDGRLCISILHQSGDPMTDEPDAETWSPVQTVESVLISIVSLLEDPNINSPANVDAAVDYRKNPEQYKQRVKMEVERSKQDIPKGFIMPTSESAYISQSKLDEPESNKDMADNFWYDSDLDDDENGSVILQDDDYDDGNNHIPFEDDDVYNYNDNDDDDERIEFEDDDDDDDDSIDNDSVMDRKQPHKAEDESEDVEDVERVSKKI
notes: Untagged baculovirus form in the assembly experiments; also called E2 Cdc34
B4: binds [7].

B5: phosphorylated Cln1HA (protein, S. cerevisiae, UniProt P20437 1-546, looked up, not shown: small tags and cut ends)
chain: MNHSEVKTGLIVTAKQTYYPIELSNAELLTHYETIQEYHEEISQNVLVQSSKTKPDIKLIDQQPEMNPHQTREAIVTFLYQLSVMTRVSNGIFFHAVRFYDRYCSKRVVLKDQAKLVVGTCLWLAAKTWGGCNHIINNVSIPTGGRFYGPNPRARIPRLSELVHYCGGSDLFDESMFIQMERHILDTLNWDVYEPMINDYILNVDENCLIQYELYKNQLQNNNSNGKEWSCKRKSQSSDDSDATVEEHISSSPQSTGLDGDTTTMDEDEELNSKIKLINLKRFLIDLSCWQYNLLKFELYEICNGMFSIINKFTNQDQGPFLSMPIGNDINSNTQTQVFSIIINGIVNSPPSLVEVYKEQYGIVPFILQVKDYNLELQKKLQLASTIDLTRKIAVNSRYFDQNASSSSVSSPSTYSSGTNYTPMRNFSAQSDNSVFSTTNIDHSSPITPHMYTFNQFKNESACDSAISVSSLPNQTQNGNMPLSSNYQNMMLEERNKENRIPNSSSAEIPQRAKFMTTGIFQNTGELTNRASSISLSLRNHNSSQL
modifications: autophosphorylated in Cln1/Cdc28 complexes with ATP; sites not stated
B5 showed a percent of the input associated (% of the input) [3] of 6 and a percent of the input associated (% of the input) [4] of 40.
